Results from the Immune Epitope Database (IEDB).

Experiments:
[1] = biological target: HLA-B*46:01; assay: IEDB peptide-MHC binding, purified MHC/direct/fluorescence; filed as Kd, often an IC50 or EC50 that approximates it; ≥ and ≤ were set here for values at or beyond the usual limits of such assays
[2] = biological target: HLA-A*11:01; assay: as above
[3] = biological target: HLA-A*02:01; assay: as above
[4] = biological target: HLA-B*40:01; assay: as above
[5] = biological target: HLA-B*15:02; assay: as above
[6] = biological target: HLA-B*15:01; assay: as above
[7] = biological target: HLA-B*07:02; assay: as above
[8] = biological target: HLA-A*01:01; assay: as above
[9] = biological target: HLA-A*69:01; assay: as above
[10] = biological target: HLA-A*03:01; assay: as above
[11] = biological target: HLA-B*44:02; assay: as above
[12] = biological target: HLA-A*31:01; assay: as above
[13] = biological target: HLA-B*35:01; assay: as above
[14] = biological target: HLA-A*26:01; assay: as above
[15] = biological target: HLA-B*58:01; assay: as above
[16] = biological target: HLA-B*08:01; assay: as above
[17] = biological target: HLA-B*48:01; assay: IEDB peptide-MHC binding, purified MHC/competitive/fluorescence; filed as Kd, often an IC50 or EC50 that approximates it; ≥ and ≤ were set here for values at or beyond the usual limits of such assays
[18] = biological target: HLA-A*02:01; assay: as above; details: source organism: Zaire ebolavirus
[19] = biological target: HLA-B*39:01; assay: as above; details: source organism: Zaire ebolavirus
[20] = biological target: HLA-B*27:03; assay: as above; details: source organism: Zaire ebolavirus
[21] = biological target: HLA-A*69:01; assay: as above; details: source organism: Zaire ebolavirus
[22] = biological target: HLA-B*35:01; assay: as above
[23] = biological target: HLA-A*26:01; assay: as above; details: source organism: Zaire ebolavirus
[24] = biological target: HLA-A*02:12; assay: IEDB peptide-MHC binding, purified MHC/direct/fluorescence; filed as Kd, often an IC50 or EC50 that approximates it; ≥ and ≤ were set here for values at or beyond the usual limits of such assays; details: source organism: Zaire ebolavirus
[25] = biological target: HLA-A*02:16; assay: as above; details: source organism: Zaire ebolavirus
[26] = biological target: HLA-C*14:02; assay: as above
[27] = biological target: HLA-A*02:03; assay: as above; details: source organism: Zaire ebolavirus
[28] = biological target: HLA-A*68:02; assay: as above; details: source organism: Zaire ebolavirus
[29] = biological target: HLA-A*02:19; assay: as above; details: source organism: Zaire ebolavirus
[30] = biological target: HLA-B*27:05; assay: as above
[31] = biological target: HLA-A*68:23; assay: IEDB peptide-MHC binding, purified MHC/competitive/fluorescence; filed as Kd, often an IC50 or EC50 that approximates it; ≥ and ≤ were set here for values at or beyond the usual limits of such assays
[32] = biological target: HLA-B*83:01; assay: as above
[33] = biological target: HLA-B*45:06; assay: as above
[34] = biological target: HLA-B*51:01; assay: as above; details: source organism: Salmonella enterica subsp. enterica serovar Typhi
[35] = biological target: HLA-B*15:42; assay: as above
[36] = biological target: HLA-B*08:01; assay: as above; details: source organism: Salmonella enterica subsp. enterica serovar Typhi
[37] = biological target: HLA-C*05:01; assay: IEDB peptide-MHC binding, purified MHC/direct/fluorescence; filed as Kd, often an IC50 or EC50 that approximates it; ≥ and ≤ were set here for values at or beyond the usual limits of such assays; details: source organism: Salmonella enterica subsp. enterica serovar Typhi str. CT18
[38] = biological target: HLA-B*40:13; assay: IEDB peptide-MHC binding, purified MHC/competitive/fluorescence; filed as Kd, often an IC50 or EC50 that approximates it; ≥ and ≤ were set here for values at or beyond the usual limits of such assays
[39] = biological target: HLA-A*32:07; assay: as above
[40] = biological target: HLA-A*32:15; assay: as above
[41] = biological target: HLA-C*15:02; assay: IEDB peptide-MHC binding, purified MHC/direct/fluorescence; filed as Kd, often an IC50 or EC50 that approximates it; ≥ and ≤ were set here for values at or beyond the usual limits of such assays; details: source organism: Entamoeba histolytica HM-1:IMSS
[42] = biological target: HLA-C*06:02; assay: as above; details: source organism: Entamoeba histolytica HM-1:IMSS
[43] = biological target: HLA-C*14:02; assay: IEDB peptide-MHC binding, purified MHC/competitive/fluorescence; filed as Kd, often an IC50 or EC50 that approximates it; ≥ and ≤ were set here for values at or beyond the usual limits of such assays; details: source organism: Yersinia pestis Nepal516
[44] = biological target: HLA-B*58:01; assay: as above; details: source organism: Yersinia pestis Nepal516
[45] = source organism: Yersinia pestis Antiqua
[46] = source organism: Yersinia pestis
[47] = source organism: Entamoeba histolytica HM-1:IMSS
[48] = source organism: Zaire ebolavirus
[49] = source organism: Vibrio vulnificus
[50] = source organism: Salmonella enterica subsp. enterica serovar Typhi
[51] = source organism: Escherichia coli O157:H7
[52] = source organism: Escherichia coli
[53] = source organism: Yersinia pestis Nepal516

Which Kd [1, 45] does the source give for FQLYSDLAH here?
The Kd was 2270 nM.

What about the Kd [2, 45] of the same sequence?
The Kd was no less than 20000 nM.

What about the Kd [3, 46] of the same sequence?
Its Kd is 1910 nM.

What about the Kd [4, 45] of the same sequence?
Its Kd is no less than 20000 nM.

And the Kd [5, 45]?
The Kd was 25.9 nM.

And the Kd [6, 46]?
The Kd was 68.2 nM.

What about the Kd [7, 45] of the same sequence?
The Kd was no less than 20000 nM.

And the Kd [8, 45]?
Its Kd is no less than 20000 nM.

What about the Kd [9, 45] of the same sequence?
The Kd was no less than 20000 nM.

And the Kd [10, 45]?
Its Kd is no less than 20000 nM.

And the Kd [11, 45]?
Its Kd is no less than 20000 nM.

What about the Kd [12, 45] of the same sequence?
The Kd was no less than 20000 nM.

And the Kd [13, 46]?
Its Kd is 860 nM.

What about the Kd [14, 45] of the same sequence?
The Kd was no less than 20000 nM.

And the Kd [15, 45]?
Its Kd is no less than 20000 nM.

What about the Kd [16, 45] of the same sequence?
The Kd was no less than 20000 nM.

KEFNGPAML was tested. Which Kd [17, 47] did it give?
The Kd was 438 nM.

How did the Kd [18] turn out when KVYWAGIEF was run?
The Kd was no less than 20000 nM.

And the Kd [19]?
Its Kd is no less than 20000 nM.

What about the Kd [20] of the same sequence?
Its Kd is no less than 20000 nM.

What about the Kd [21] of the same sequence?
The Kd was no less than 20000 nM.

And the Kd [22, 48]?
Its Kd is 114 nM.

What about the Kd [23] of the same sequence?
Its Kd is no less than 20000 nM.

What about the Kd [24] of the same sequence?
Its Kd is no less than 20000 nM.

And the Kd ([6]; source organism: Ebola virus - Gabon (1994-1997))?
Its Kd is 133 nM.

And the Kd [25]?
Its Kd is no less than 20000 nM.

What about the Kd [26, 48] of the same sequence?
Its Kd is 18 nM.

And the Kd [27]?
The Kd was no less than 20000 nM.

What about the Kd [28] of the same sequence?
Its Kd is no less than 20000 nM.

And the Kd [29]?
Its Kd is no less than 20000 nM.

LLTQSNAGF was tested. Which Kd [1, 49] did it give?
Its Kd is no less than 20000 nM.

And the Kd [2, 49]?
The Kd was no less than 20000 nM.

And the Kd [4, 49]?
Its Kd is no less than 20000 nM.

And the Kd ([5]; source organism: Vibrio vulnificus CMCP6)?
Its Kd is 49 nM.

What about the Kd [6, 49] of the same sequence?
Its Kd is 146 nM.

What about the Kd [7, 49] of the same sequence?
The Kd was no less than 20000 nM.

And the Kd [8, 49]?
The Kd was no less than 20000 nM.

And the Kd [9, 49]?
Its Kd is no less than 20000 nM.

And the Kd [30, 49]?
Its Kd is no less than 20000 nM.

And the Kd [10, 49]?
The Kd was no less than 20000 nM.

What about the Kd [11, 49] of the same sequence?
The Kd was no less than 20000 nM.

What about the Kd [12, 49] of the same sequence?
Its Kd is no less than 20000 nM.

And the Kd [13, 49]?
Its Kd is 345 nM.

What about the Kd [14, 49] of the same sequence?
Its Kd is no less than 20000 nM.

And the Kd [16, 49]?
Its Kd is no less than 20000 nM.

How did the Kd [31, 50] turn out when MPFIATPPV was run?
The Kd was 2.1 nM.

And the Kd [32, 50]?
The Kd was 62.6 nM.

And the Kd [33, 50]?
Its Kd is no less than 5000 nM.

And the Kd [34]?
Its Kd is 567 nM.

What about the Kd [35, 50] of the same sequence?
Its Kd is no less than 5000 nM.

What about the Kd [22, 50] of the same sequence?
Its Kd is no more than 0.1 nM.

What about the Kd [36] of the same sequence?
The Kd was 1440 nM.

What about the Kd [37] of the same sequence?
Its Kd is no less than 20000 nM.

RQQAIVDLL was tested. Which Kd ([17]; source organism: Shigella flexneri 5 str. 8401) did it give?
The Kd was 153 nM.

Which Kd [32, 47] does the source give for SMFERDFHF here?
Its Kd is no less than 5000 nM.

What about the Kd [33, 47] of the same sequence?
Its Kd is no less than 5000 nM.

And the Kd [38, 47]?
The Kd was 2.8 nM.

And the Kd [39, 47]?
The Kd was 9.3 nM.

What about the Kd [35, 47] of the same sequence?
The Kd was no less than 5000 nM.

And the Kd [40, 47]?
Its Kd is 31.6 nM.

What about the Kd [3, 47] of the same sequence?
The Kd was 4 nM.

What about the Kd [41] of the same sequence?
Its Kd is no less than 20000 nM.

And the Kd [9, 47]?
The Kd was no less than 5000 nM.

And the Kd [42]?
The Kd was 1720 nM.

And the Kd [26, 47]?
The Kd was 3270 nM.

With YLGTPNNTY as the sequence, how does the Kd [1, 51] read?
Its Kd is no less than 20000 nM.

What about the Kd [2, 51] of the same sequence?
Its Kd is no less than 20000 nM.

What about the Kd [3, 51] of the same sequence?
Its Kd is no less than 20000 nM.

And the Kd [4, 51]?
Its Kd is no less than 20000 nM.

And the Kd [5, 51]?
The Kd was 9.4 nM.

And the Kd [6, 52]?
The Kd was 137 nM.

What about the Kd [7, 51] of the same sequence?
The Kd was no less than 20000 nM.

And the Kd [8, 52]?
Its Kd is 284 nM.

And the Kd [9, 51]?
Its Kd is no less than 20000 nM.

What about the Kd [30, 51] of the same sequence?
Its Kd is no less than 20000 nM.

What about the Kd [10, 51] of the same sequence?
Its Kd is no less than 20000 nM.

And the Kd [11, 51]?
The Kd was no less than 20000 nM.

And the Kd [12, 51]?
Its Kd is no less than 20000 nM.

What about the Kd [13, 52] of the same sequence?
The Kd was 325 nM.

What about the Kd [14, 51] of the same sequence?
The Kd was no less than 20000 nM.

And the Kd [15, 51]?
The Kd was no less than 20000 nM.

What about the Kd [16, 51] of the same sequence?
The Kd was no less than 20000 nM.

Which results are given for YSLMSRYQF?
Kd [31, 53]: 29.5 nM; Kd [32, 53]: ≥ 5000 nM; Kd [33, 53]: ≥ 5000 nM; Kd [38, 53]: 13.2 nM; Kd [39, 53]: 25.8 nM; Kd [43]: 43 nM; Kd [35, 53]: ≥ 5000 nM; Kd [44]: 16.2 nM; Kd [40, 53]: 58.2 nM
